Experimental data taken from PMC4609182 (2015).

T1: Parkin R0RBR module (RING0, RING1, IBR, RING2), wild type (rat, UniProt Q9JK66 141-465)
T1 chain: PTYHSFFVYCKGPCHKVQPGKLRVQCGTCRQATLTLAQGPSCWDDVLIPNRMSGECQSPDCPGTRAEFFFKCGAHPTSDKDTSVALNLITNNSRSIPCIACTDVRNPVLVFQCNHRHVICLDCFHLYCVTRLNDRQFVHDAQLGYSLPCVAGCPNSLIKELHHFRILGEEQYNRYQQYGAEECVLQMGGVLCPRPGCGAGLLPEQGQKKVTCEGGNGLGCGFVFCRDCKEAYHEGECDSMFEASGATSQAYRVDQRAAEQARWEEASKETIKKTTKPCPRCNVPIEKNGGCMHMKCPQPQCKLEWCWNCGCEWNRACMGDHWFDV


Assays:
[1] = target: T1, Parkin R0RBR module (RING0, RING1, IBR, …); assay: ITC
[2] = target: Ub (Homo sapiens); assay: ITC

Binder | Kd [1] | Kd [2]
Parkin Ubl domain (ubiquitin-like domain), unmodified (domain or fragment) MIVFVRFNSSYGFPVEVDSDTSIFQLKEVVAKRQGVPADQLRVIFAGKELQNHLTVQNCDLEQQSIVHIVQRPQRK | 14 µM | 
Parkin R0RBR module (RING0, RING1, IBR, RING2), wild type (domain or fragment, unmodified (non-phosphorylated) ubiquitin; only the figure label 'Ub' is given, so wild type is assumed (the non-phosphorylatable control in Fig EV3B is a separate His-tagged UbS65A)) PTYHSFFVYCKGPCHKVQPGKLRVQCGTCRQATLTLAQGPSCWDDVLIPNRMSGECQSPDCPGTRAEFFFKCGAHPTSDKDTSVALNLITNNSRSIPCIACTDVRNPVLVFQCNHRHVICLDCFHLYCVTRLNDRQFVHDAQLGYSLPCVAGCPNSLIKELHHFRILGEEQYNRYQQYGAEECVLQMGGVLCPRPGCGAGLLPEQGQKKVTCEGGNGLGCGFVFCRDCKEAYHEGECDSMFEASGATSQAYRVDQRAAEQARWEEASKETIKKTTKPCPRCNVPIEKNGGCMHMKCPQPQCKLEWCWNCGCEWNRACMGDHWFDV |  | 41 µM
